Assay results from paper PMC12205998.

What was measured:
[1] = biological target: E. fergusonii BrxB WT (Escherichia fergusonii); assay: SEC; analytical SEC of E. fergusonii BrxB alone, 10 μM in 100 μl, Superdex 75 increase 10/300 GL, 20 mM Tris HCl pH 7.9, 150 mM NaCl; monomer and dimer
[2] = biological target: E. fergusonii BrxB WT (Escherichia fergusonii); assay: native MS; collected BrxB SEC peaks exchanged into 10 mM ammonium bicarbonate, 0.5 mg/ml, positive ion electrospray time-of-flight MS; monomer and dimer

## E. fergusonii BrxB WT (natural protein)
[1]
  stoichiometry N: 2
[2]
  stoichiometry N: 2
